From patent US20260055142A1, “PHARMACEUTICAL USE OF POLYPEPTIDE IN PREPARATION OF DRUGS FOR TREATING AND/OR PREVENTING DIABETES AND OBESITY AND RELATED DISEASES THEREOF” (GUANGDONG RAYNOVENT BIOTECH CO., LTD., priority 2022, published 2026)
Read-outs that look alike come from different tables or passages of the source. Positions of bridges follow the written chain, without caps; N, C: chain ends. Non-standard residues stand in square brackets, D forms with d. No end group written: not given here. Ida bridge carrying fatty‑acid side chain of Intermediate A‑1 = not defined here; Aib = CC(C)(N)C(=O)O

What was measured:
[1] = tested on: mouse plasma albumin; type: in vitro ADME
Method: (§1) To study the binding of the test compounds to human/mouse plasma albumin. • 1. Blank matrix preparation: On the day of the experiment, the plasma was thawed in cold water and centrifuged at 3220 rpm for 5 min to remove all the blood clots. The pH of the resulting plasma was measured and adjusted to 7.4±0.1 with 1% phosphoric acid or 1 N sodium hydroxide as desired. • 2. Dilution of the test compounds: the test compounds were dissolved in dimethyl sulfoxide (DMSO) to prepare stock solutions of 10 mM and 2 mM, respectively. 2 μL of the stock solution (2 mM) was diluted with 98 μL of DMSO to obtain a working solution of 40 μM. 10 μL of the stock solution was diluted with 240 μL of DMSO to obtain a working solution of control compounds of 400 μM. A working solution of the compounds (5 μL) was mixed evenly with a blank matrix (995 μL) at a ratio of 1:200 to prepare a loading matrix. • 3. Analytical procedure • 3.1 Equal amounts of 30 μL of the loading matrix (n=2) were transferred into a sample collection plate to prepare Time 0 (T0) samples for residue determination. The samples were immediately matched with corresponding blank buffer to a final volume of 60 μL, with a volume ratio of plasma (the loading matrix) to buffer being 1:1 in each well. Then, into the TO samples of the test compounds were respectively added 60 μL of 4% H3PO4 in H2O and 480 μL of stop solution containing internal standard. They were then stored at 2° C. to 8° C. together with other samples for further treatment. • 3.2 The remaining plasma samples were pre-incubated in a carbon dioxide incubator at 37±1° C. for 30 min. Protein-free samples (F samples) were prepared. Matrix-loaded samples (230 μL) were all transferred into polycarbonate tubes (n=2) and ultracentrifuged at 37° C. and 155,000×g (35000 rpm) for 4 h. • 3.3 To prepare T samples (test samples), an additional matrix-containing sample was transferred into a separate 96-well plate (sample incubation plate) and incubated at 37° C. for 4 h. • 3.4 At the end of centrifugation, 30 μL of protein-free samples (F samples) and 30 μL of T samples were taken from the second layer (beneath the upper layer) of the supernatant and transferred into a new sample collection plate. Each sample was mixed with corresponding blank buffer or matrix to a final volume of 60 μL, and the blank matrix:buffer volume ratio is 1:1. Into all the samples were added 60 μL of 4% H3PO4 solution in water and 480 μL of stop solution containing internal standard. The mixture was centrifuged at 4000 rpm for 20 min. 100 μL of supernatant for each sample was taken for LC-MS/MS analysis.

[2] = tested on: human plasma albumin; type: in vitro ADME
Method: as §1

[3] = parameters: species or system SD rats; conditions: rat, in vivo, sc, 0.048 mg/kg
Method: To test the pharmacokinetic profiles of the compounds in SD rats. The pharmacokinetic characteristics in rodent animals following subcutaneous injection of the compounds were tested using standard protocols. In the experiment, the candidate compounds were formulated into clear solution, which was administered to the rats by single subcutaneous injection (SC, 0.048 mpk). The vehicle for injection was citrate buffer solution (20 mM, pH=7). The whole blood was collected and processed to get the plasma. The drug concentration was analyzed by LC-MS/MS, and the pharmacokinetic parameters were calculated using Phoenix WinNonlin software.

[4] = parameters: species or system Cynomolgus macaques; conditions: cynomolgus monkey, in vivo, sc, 0.02 mg/kg
Method: To test the pharmacokinetic profiles of the compounds in Cynomolgus macaques. The pharmacokinetic characteristics in mammals following intravenous injection and subcutaneous injection of the compounds were tested using standard protocols. In the experiment, the candidate compounds were formulated into clear solution, which was administered to Cynomolgus macaques by single subcutaneous injection (SC, 0.02 mpk). The vehicle for subcutaneous injection was citrate buffer solution (20 mM, pH=7). The whole blood was collected and processed to get the plasma. The drug concentration was analyzed by LC-MS/MS, and the pharmacokinetic parameters were calculated using Phoenix WinNonlin software.

[5] = parameters: species or system C57BL/6 mice; conditions: mouse, in vivo, sc, 0.048 mg/kg
Method: To test the pharmacokinetic profiles of the compounds in C57BL/6 mice. The pharmacokinetic characteristics in rodent animals following subcutaneous injection of the compounds were tested using standard protocols. In the experiment, the candidate compounds were formulated into clear solution, which was administered by subcutaneous injection (SC, 0.048 mpk). The vehicle for subcutaneous injection was citrate buffer solution (20 mM, pH=7). The whole blood was collected and processed to get the plasma. The drug concentration was analyzed by LC-MS/MS, and the pharmacokinetic parameters were calculated using Phoenix WinNonlin software.

[6] = biological target: T1, GIPR (UniProt P48546 22-466, limits assumed); assay: cell-based or functional assay
T1 sequence (looked up): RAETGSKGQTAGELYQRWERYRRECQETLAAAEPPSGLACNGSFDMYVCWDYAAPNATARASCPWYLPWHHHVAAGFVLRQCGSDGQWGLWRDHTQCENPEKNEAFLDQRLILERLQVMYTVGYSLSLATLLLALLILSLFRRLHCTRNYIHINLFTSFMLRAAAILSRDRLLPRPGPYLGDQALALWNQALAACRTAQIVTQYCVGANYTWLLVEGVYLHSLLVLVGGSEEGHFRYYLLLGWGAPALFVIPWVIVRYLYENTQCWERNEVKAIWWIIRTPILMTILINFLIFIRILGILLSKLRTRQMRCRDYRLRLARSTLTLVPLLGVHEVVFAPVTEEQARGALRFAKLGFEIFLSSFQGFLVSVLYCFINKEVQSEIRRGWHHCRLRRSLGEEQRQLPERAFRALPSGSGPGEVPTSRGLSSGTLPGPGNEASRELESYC

[7] = biological target: GLP-1R (UniProt P43220 24-463, limits assumed); assay: cell-based or functional assay

CC[C@H](C)[C@H](NC(=O)[C@H](CC(C)C)NC(=O)[C@H](Cc1c[nH]c2ccccc12)NC(=O)[C@H](CCC(=O)O)NC(=O)[C@@H](NC(=O)[C@H](Cc1ccccc1)NC(=O)[C@H](CCC(=O)O)NC(=O)[C@@H]1CCCCNC(=O)CN(C(=O)COCCOCCNC(=O)COCCOCCNC(=O)CC[C@H](NC(=O)CCCCCCCCCCCCCCCCCCC(=O)O)C(=O)O)CC(=O)NCCCC[C@H](NC(=O)[C@H](CCCCN)NC(=O)[C@H](CC(=O)O)NC(=O)[C@H](CC(C)C)NC(=O)C(C)(C)NC(=O)[C@@H](NC(=O)[C@H](CO)NC(=O)[C@H](Cc2ccc(O)cc2)NC(=O)[C@H](CC(=O)O)NC(=O)[C@H](CO)NC(=O)[C@@H](NC(=O)[C@H](Cc2ccccc2)NC(=O)[C@@H](NC(=O)CNC(=O)[C@H](CCC(=O)O)NC(=O)C(C)(C)NC(=O)[C@@H](N)Cc2ccc(O)cc2)[C@@H](C)O)[C@@H](C)O)[C@@H](C)CC)C(=O)N[C@@H](C)C(=O)N[C@@H](CCC(N)=O)C(=O)N1)C(C)C)C(=O)N[C@@H](C)C(=O)NCC(=O)NCC(=O)N1CCC[C@H]1C(=O)N[C@@H](CO)C(=O)N[C@@H](CO)C(=O)NCC(=O)N[C@@H](C)C(=O)N1CCC[C@H]1C(=O)N1CCC[C@H]1C(=O)N1CCC[C@H]1C(=O)N[C@@H](CO)C(N)=O [WX-009]
PPB % unbound (M) [1]: NA/NA | PPB % unbound (H) [2]: NA/NA | AUC(0-t) [3]: 1.09 µM·h | half-life [3]: 21 h | AUC(0-t) [4]: 4.74 µM·h | half-life [4]: 105 h | AUC(0-t) [5]: 1.99 µM·h | half-life [5]: 17 h

CC[C@H](C)[C@H](NC(=O)[C@H](CC(C)C)NC(=O)[C@H](Cc1c[nH]c2ccccc12)NC(=O)[C@H](CCC(=O)O)NC(=O)[C@@H](NC(=O)[C@H](Cc1ccccc1)NC(=O)[C@H](C)NC(=O)[C@@H]1CCCCNC(=O)CN(C(=O)COCCOCCNC(=O)COCCOCCNC(=O)CC[C@H](NC(=O)CCCCCCCCCCCCCCCCCCC(=O)O)C(=O)O)CC(=O)NCCCC[C@H](NC(=O)[C@H](CCCCN)NC(=O)[C@H](CC(=O)O)NC(=O)[C@H](CC(C)C)NC(=O)C(C)(C)NC(=O)[C@@H](NC(=O)[C@H](CO)NC(=O)[C@H](Cc2ccc(O)cc2)NC(=O)[C@H](CC(=O)O)NC(=O)[C@H](CO)NC(=O)[C@@H](NC(=O)[C@H](Cc2ccccc2)NC(=O)[C@@H](NC(=O)CNC(=O)[C@H](CCC(=O)O)NC(=O)C(C)(C)NC(=O)[C@@H](N)Cc2ccc(O)cc2)[C@@H](C)O)[C@@H](C)O)[C@@H](C)CC)C(=O)N[C@@H](C)C(=O)N[C@@H](CCC(N)=O)C(=O)N1)C(C)C)C(=O)N[C@@H](C)C(=O)NCC(=O)NCC(=O)N1CCC[C@H]1C(=O)N[C@@H](CO)C(=O)N[C@@H](CO)C(=O)NCC(=O)N[C@@H](C)C(=O)N1CCC[C@H]1C(=O)N1CCC[C@H]1C(=O)N1CCC[C@H]1C(=O)N[C@@H](CO)C(N)=O [WX-005]
PPB % unbound (M) [1]: NA/NA | PPB % unbound (H) [2]: NA/NA

B1: polypeptide WX-010 (peptide)
peptide: Y[Aib]EGTFTSDYSI[Aib]LDKKAQKAFVEWLIAGGPSSGAPPPS-NH2
modifications: bridge 17-20; not fully specified (bridges); also: Glu bridge amino group carries fatty-acid side chain of Intermediate A-1
EC50, cAMP assay, (-) 1% HSA [6]: 0.14 nM | EC50, cAMP assay, (-) 1% HSA [7]: 0.017 nM

B2: polypeptide WX-005 (peptide)
peptide: Y[Aib]EGTFTSDYSI[Aib]LDKKAQKAFVEWLIAGGPSSGAPPPS-NH2
modifications: linker 17-20 via Ida; also: Ida bridge carries fatty-acid side chain of Intermediate A-1
EC50, cAMP assay, (+) 1% HSA [6]: 19.3 nM | EC50, cAMP assay, (-) 1% HSA [6]: 0.16 nM | Ratio (EC50 (+) 1% HSA over (-) 1% HSA) [6]: 121 | EC50, cAMP assay, (+) 1% HSA [7]: 7.63 nM | EC50, cAMP assay, (-) 1% HSA [7]: 0.036 nM | Ratio (EC50 (+) 1% HSA over (-) 1% HSA) [7]: 212

B3: polypeptide WX-009 (peptide)
peptide: Y[Aib]EGTFTSDYSI[Aib]LDKKAQKEFVEWLIAGGPSSGAPPPS-NH2
modifications: linker 17-20 via Ida bridge carrying fatty‑acid side chain of Intermediate A‑1; reading uncertain
EC50, cAMP assay, (-) 1% HSA [6]: 0.074 nM | EC50, cAMP assay, (-) 1% HSA [7]: 0.014 nM

B4: polypeptide compound WX-001 (peptide)
peptide: Y[Aib]EGTFTSDYSI[Aib]LDKIAQKAFVKWLIAGGPSSGAPPPS-NH2
modifications: linker 20-24 via Ida bridge carrying fatty‑acid side chain of Intermediate A‑1; reading uncertain
EC50, cAMP assay, (+) 1% HSA [6]: 16 nM | EC50, cAMP assay, (-) 1% HSA [6]: 0.324 nM | Ratio (EC50 (+) 1% HSA over (-) 1% HSA) [6]: 49.3 | EC50, cAMP assay, (+) 1% HSA [7]: 16.6 nM | EC50, cAMP assay, (-) 1% HSA [7]: 0.0596 nM | Ratio (EC50 (+) 1% HSA over (-) 1% HSA) [7]: 279
